B1: anti-SARS-CoV2-14 IgG (lambda-VL-kappa-CL hybrid light chain) (antibody, V domains shown)
VH: EVQLQQSGPGLVKPSQTLSLTCAISGDSVSSNSAAWNWIRQSPSRGLEWLGRTYYRSKWYNDYAVSVKSRITINPDTSKNQFSLQLNSVTPEDTAVYYCAREEQQLVHDYYYYGMDVWGQGTMVTVSS
VL: QAVVTQPASVSGSPGQSITISCTGTSSDIGAYNYISWYQQHPGKAPKLIIYEVSNRPSGISYRFSGSKSGNTASLTISGLQAEDEANYYCSSYAGSISFGGGTKVTVL
B2: anti-SARS-CoV2-14 IgG (full lambda light chain) (antibody, V domains shown)
VH: B1 VH
VL: B1 VL

Experiments:
Details in all cases: remark: other sources report otherwise
[1] = molecular target: recombinant SARS-CoV-2 Receptor Binding Domain (RBD) with a his tag (ATUM, Cat. 65639.1.a) (SARS-CoV-2), P0DTC2; experiment: ELISA on coated RBD-his
[2] = molecular target: T1, recombinant Spike protein (Sino Biologicals Cat #40589-V08B1) (SARS-CoV-2), P0DTC2; experiment: BLI (Octet), His-tagged S on Ni-NTA sensor, avidity
[3] = molecular target: T1, recombinant Spike protein (Sino …); experiment: ELISA on coated recombinant spike
[4] = molecular target: T2, wild type RBD protein (generated as in Ku et al. 2021) (SARS-CoV-2), P0DTC2; experiment: BLI competition, RBD on sensor, antibody then ACE2; competitor ACE2
[5] = molecular target: T2, wild type RBD protein (generated as in …); experiment: binding KD on RBD protein, generally as Example 4

Binder | EC50 [1] [nM] | Kd [2] [nM] | koff [2] [s⁻¹] | kon [2] [M⁻¹ s⁻¹] | EC50 [3] [nM] | EC50 [4] [nM] | Kd [5] [nM]
B1 | > 60 | 1.39 | 0.0013 | 933000 | 6.22 |  | 
B2 |  |  |  |  |  | 18.6 | 0.82

Source: patent US20220267415A1
